Measurements taken from patent publication US20090208489A1 (Takeda / Millennium, published 2009).
One block for each binder: values may come before it.

Assays:
[1] = biological target: T1, OV064(32-282) expressed on transfected ES-2 ovarian carcinoma cells (human, UniProt Q7Z7D3 32-282); assay: flow cytometry on OV064 expressing cells
T1 construct: also called ES-2_OV064; ES2/OV064
T1 sequence: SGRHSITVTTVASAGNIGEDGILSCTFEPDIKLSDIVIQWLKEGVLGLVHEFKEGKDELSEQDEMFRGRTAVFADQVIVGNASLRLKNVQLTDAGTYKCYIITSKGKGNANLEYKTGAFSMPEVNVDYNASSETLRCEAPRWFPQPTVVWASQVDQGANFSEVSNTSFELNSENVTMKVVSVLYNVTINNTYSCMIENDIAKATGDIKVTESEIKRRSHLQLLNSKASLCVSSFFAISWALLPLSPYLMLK
Experimental: Analysis of mAb by flow cytometry. 50,000-100,000 test cells were prepared in 100 ul phosphate buffered saline+1% fetal bovine serum (PBSS). 50 ul of test reagent (either hybridoma supernatants, mouse serum or purified mAb) was added, and incubated 30-45 min on ice, then washed 2-3 times in PBSS. 50 ul of fluorescently labeled secondary antibody (Anti-Mouse IgG or Anti-Human IgG) was then added, and incubated 30-45 minutes on ice and washed. The cells were then resuspended in 300 ul of PBSS and analyzed by flow cytometer (FACSCalibur, Becton Dickinson) to assess amount of cell surface bound antibody.
Each human mAb (mAb sc77, mAb sc189, and mAb sc209) bound purified recombinant OV064-His fusion protein in ELISA analysis.

[2] = biological target: T1, OV064(32-282) expressed on transfected …; assay: cell-based or functional assay
OV064 peptide 167-186 = biological target: T2, OV064 peptide 167-186 (human); assay: peptide array (20-mer on nitrocellulose)
T2 construct: 20-mer synthetic peptide on nitrocellulose; also called OV064 AA 167-186
T2 peptide: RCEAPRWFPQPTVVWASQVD
Experimental: (§1) Epitope mapping. A variety of techniques are available to determine epitopes specific for any particular antibody. For example, constructs of OV064 truncations were generated in a pCMV3 vector. Constructs representing amino acids 32-282, 133-282, 167-282 and 183-282 of the OV064 protein sequence were generated as N-terminally FLAG tagged proteins that when transfected into 293 cells, will be expressed on the cell surface. OV064 specific antibodies sc077, sc189, sc209 an 8G5 were tested for binding to these expressed constructs by flow cytometry, as described above. Furthermore, epitopes were analyzed using the Novatope system (Novagen Inc). Briefly, OV064 cDNA was treated with DNAse and fragments representing 15-600 bp were cloned into a bacterial expression vector. Each mAb was tested against 2000 clones representing OV064 fragments and each positive clone was picked and sequenced. The minimal common sequence between each of these clones was designated as the epitope to which each antibody bound. Additionally, a synthetic peptide map was utilized for identifying anti-OV064 epitopes. Briefly, 20 amino acid peptides each overlapping with 15 amino acids were printed on a nitrocellulose filter and incubated with anti-OV064 specific antibodies. Peptide spots that reacted strongly with the OV064 specific antibodies indicated the presence of an OV064 epitope.
(§2) As described above in the methods, various approaches to determine epitope mapping of OV064 specific mAbs were used. […] The other methods confirmed the results depicted in Table 5.

OV064 peptide 172-191 = biological target: T3, OV064 peptide 172-191 (human); assay: peptide array (20-mer on nitrocellulose)
T3 construct: 20-mer synthetic peptide on nitrocellulose; also called OV064 AA 172-191
T3 peptide: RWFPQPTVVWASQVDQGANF
Experimental: as §1, §2

OV064 peptide 162-181 = biological target: T4, OV064 peptide 162-181 (human); assay: peptide array (20-mer on nitrocellulose)
T4 construct: 20-mer synthetic peptide on nitrocellulose; also called OV064 AA 162-181
T4 peptide: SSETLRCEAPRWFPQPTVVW
Experimental: as §1, §2

OV064 peptide 157-176 = biological target: T5, OV064 peptide 157-176 (human); assay: peptide array (20-mer on nitrocellulose)
T5 construct: 20-mer synthetic peptide on nitrocellulose; also called OV064 AA 157-176
T5 peptide: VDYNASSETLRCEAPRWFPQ
Experimental: as §1, §2

OV064 peptide 238-257 = biological target: T6, OV064 peptide 238-257 (human); assay: peptide array (20-mer on nitrocellulose)
T6 construct: 20-mer synthetic peptide on nitrocellulose; also called OV064 AA 238-257
T6 peptide: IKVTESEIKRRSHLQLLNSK
Experimental: as §1, §2

OV064 peptide 237-256 = biological target: T7, OV064 peptide 237-256 (human); assay: peptide array (20-mer on nitrocellulose)
T7 construct: 20-mer synthetic peptide on nitrocellulose; also called OV064 AA 237-256
T7 peptide: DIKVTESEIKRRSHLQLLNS
Experimental: as §1, §2

OV064 peptide 177-196 = biological target: T8, OV064 peptide 177-196 (human); assay: peptide array (20-mer on nitrocellulose)
T8 construct: 20-mer synthetic peptide on nitrocellulose; also called OV064 AA 177-196
T8 peptide: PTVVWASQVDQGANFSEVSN
Experimental: as §1, §2

- FCM (MFI max) [1]: 780 MFI
- ICA (EC50) [2]: 0.123 nM
- binding result (OV064 peptide 167-186): binds
- binding result (OV064 peptide 172-191): binds
- binding result (OV064 peptide 162-181): binds
- binding result (OV064 peptide 157-176): binds
B1: human monoclonal antibody mAb sc77 (antibody, human IgG1, kappa, V domains shown)
VH: QVQLVESGGGVVQPGRSLRLSCAASGFTFSSYGMHWVRQAPGKGLEWVAVIWYDGNNKYYADSVKGRFTISRDNSKNTLYLQMNSLRAEDTAVYYCARTSGIAAFDYWGQGTLVTVSS
VL: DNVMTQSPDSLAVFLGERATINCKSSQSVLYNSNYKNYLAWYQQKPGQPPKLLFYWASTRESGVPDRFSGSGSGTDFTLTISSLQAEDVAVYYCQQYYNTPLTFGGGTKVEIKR
notes: Human IgG1 kappa; also called sc077; Ov64sc77

- FCM (MFI max) [1]: 820 MFI
- ICA (EC50) [2]: 0.06 nM
- binding result (OV064 peptide 238-257): binds
- binding result (OV064 peptide 237-256): binds
B2: human monoclonal antibody mAb sc189 (antibody, human IgG1, kappa, V domains shown)
VH: EVQLVESGGGLVQPGGSLRLSCAASGFSFSSYDMHWVRQATGKGLEWVSGIDIAGDTYYPGSVKGRFTISRENAKNSLYLQMNSLRAGDTAVYYCARGDYDGTFDYWGQGTLVTVSS
VL: DIVMTQTPLSSPVTLGQPASISCRSSQSLVHSDGNTYLSWLQQRPGQPLRLLFYKISNRFSGVPDRFSGSGAGTDFTLIINRVEAEDVGVYYCMHATQFPITFGQGTRLEIKR
notes: Human IgG1 kappa; also called Ov64sc189

- FCM (MFI max) [1]: 700 MFI
- ICA (EC50) [2]: 0.053 nM
- binding result (OV064 peptide 167-186): binds
- binding result (OV064 peptide 172-191): binds
- binding result (OV064 peptide 177-196): binds
- binding result (OV064 peptide 162-181): binds
- binding result (OV064 peptide 157-176): binds
B3: human monoclonal antibody mAb sc209 (antibody, human IgG1, kappa, V domains shown)
VH: GVQLVESGGGLVQPGGSLRLSCAASGFTISRNDMHWVRQATGKGLEWVSAIGTGGDTYYPGSVKGRFTISRENAKNSLYLQMNSLRAGDTAVYYCARGHMTTFGGFIVIGNGMDVWGQGTTVTVSS
VL: not shown
notes: Human IgG1 kappa; also called Ov64sc209
